Experimental data from patent publication US20260116963A1.

Experiments:
[1] = target: HIS-tagged human FcRn (human) (UniProt P55899); test: SPR (Biacore 8K+), antibody captured on anti-human Fab CM4 chip, HIS-tagged human FcRn 9.8-5000 nM as analyte, pH 6.0, 25 C, steady-state fit
[2] = target: HIS-tagged human IL-13 (human) (UniProt P35225); test: BLI in-tandem epitope binning (Octet RH96): HIS-tagged human IL-13 on anti-penta-HIS biosensors, saturated with 200 nM tralokinumab-hIgG1-YTE, then 200 nM isotype-hIgG1-YTE as competing antibody; shaded cell (non-binding, <=0.1 nm)
HIS-tagged human IL-13 (human), sequence (P35225 other isoform, or with tags, fused parts or gaps limits assumed): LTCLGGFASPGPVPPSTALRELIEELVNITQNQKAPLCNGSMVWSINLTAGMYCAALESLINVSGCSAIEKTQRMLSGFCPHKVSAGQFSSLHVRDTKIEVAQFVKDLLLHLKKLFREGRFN

[3] = target: HIS-tagged human IL-13 (human) (UniProt P35225); test: BLI in-tandem epitope binning (Octet RH96): HIS-tagged human IL-13 on anti-penta-HIS biosensors, saturated with 200 nM AbG, then 200 nM isotype-hIgG1-YTE as competing antibody; shaded cell (non-binding, <=0.1 nm)
[4] = target: HIS-tagged human IL-13 (human) (UniProt P35225); test: BLI in-tandem epitope binning (Octet RH96): HIS-tagged human IL-13 on anti-penta-HIS biosensors, first exposed to 200 nM isotype-hIgG1-YTE as saturating antibody, then 200 nM isotype-hIgG1-YTE as competing antibody; shaded cell (non-binding, <=0.1 nm)
[5] = target: HIS-tagged human IL-13 (human) (UniProt P35225); test: BLI in-tandem epitope binning (Octet RH96): HIS-tagged human IL-13 on anti-penta-HIS biosensors, saturated with 200 nM Ref1, then 200 nM isotype-hIgG1-YTE as competing antibody; shaded cell (non-binding, <=0.1 nm)

Row | Kd [1] | BLI response of the competing antibody [2] | BLI response of the competing antibody [3] | BLI response of the competing antibody [4] | BLI response of the competing antibody [5] | Substance
1 | 156 nM | – | – | – | – | isotype-hIgG1-YTE-TM (antibody)
2 | 1190 nM | – | – | – | – | isotype-hIgG4 (antibody)
3 | 1160 nM | – | – | – | – | isotype-hIgG1 (antibody)
4 | 155 nM | -0.023 nm | -0.018 nm | 0 nm | -0.036 nm | isotype-hIgG1-YTE (antibody)
